This note sets out measurements from publication PMC9574934, “Targeting the Phosphatidylserine-Immune Checkpoint with a Small-Molecule Maytansinoid Conjugate” (Journal of Medicinal Chemistry, 2022).

A short description of data set [1]: Single intravenous dose pharmacokinetic study. The following applies: for loss of AUC: intact conjugate AUC relative to 40a; for AUC(0-24 hr) Conjugate: intact conjugate; for AUC(0-24 hr) Conjugate / CL / Vss / AUC(0-24 hr) Drug: male ICR mice; for AUC(0-24 hr) Conjugate / CL / Vss: 5 mg/kg intravenous; for CL / Vss: n = 3; for AUC(0-24 hr) Drug: 5 mg/kg intravenous of conjugate. As for the experimental part:
Six-week-old male ICR mice, from the Biolasco Taiwan, were divided into groups of three and dosed at 5 mg/kg intravenously. Blood samples were drawn from each animal at time points of 0.003, 0.083, 0.25, 0.5, 1, 2, 4, 6, 8, and 24 h and stored on ice (0–4 °C). With centrifugation (3000 rpm for 15 min at 4 °C in a Beckman Model Allegra 6R centrifuge), plasma was separated from the blood and stored in frozen conditions (−20 °C). […] The mice were sacrificed, and the blood samples of 0.5 mL each and tumor samples were collected at 0.5, 2, 6, 24, 72, and 168 h after administration. Each time point group included 4 mice. Mouse blood samples were collected in EDTA tubes and centrifuged at 13,000 rpm for 5 min at 4°C for plasma collection. Plasma and the harvested tumor samples were stored at −80°C until use. Fifty microliters of mouse plasma or the sample of tumor homogenated in ddH2O with dilution ratio of 1:3 (w/v) by MiniBeadbeater-16 (BioSpec Products Inc., OK, USA) was mixed with 100 μL of acetonitrile containing 250 ng/mL BPR0L187. The mixture was vortexed for 30 s and then centrifuged at 15000g for 20 min. The supernatant was transferred to a clean tube, and 15 μL of the supernatant was injected onto LC/MS/MS. Plasma samples were analyzed by liquid chromatography tandem mass spectrometry (LC/MS/MS). The chromatographic system Agilent 1200 series LC system and an Agilent ZORBAX Eclipse XDB-C8 column (5 μm, 3.0 × 150 mm) interfaced to an MDS Sciex API4000 tandem mass spectrometer equipped with an ESI in the positive scanning mode at 600 °C was used. Data acquisition was collected via multiple reactions monitoring (MRM). A gradient system was employed for the separation of analyte and IS. Mobile phase A was 10 mM ammonium acetate aqueous solution containing 0.1% formic acid. Mobile phase B was acetonitrile. The gradient profile was as follows: 0.0–1.1 min, 50% B; 1.2–3.7 min, 55%B–90%B; 3.8–5.0 min, 90%B–50%B. The flow rate was 1.5 mL/min. The autosampler was programmed to inject 15 μL of the sample every 5 min.

Data set [2] has as its system MIA PaCa-2 human xenografts. Nature of the data set: MIA PaCa-2 xenograft antitumor efficacy. As to conditions: 1 mg/kg intravenously twice weekly for two weeks (Figure 4). The method, then: Cancer cells, suspending in phenol red free medium/DPBS, were mixed with Matrigel (356237, BD Biosciences, San Jose CA, USA) in a 1:1 ratio. Human pancreatic cancer MIA PaCa-2 (1 × 10^6 cells) or triple-negative breast cancer HCC1806 (1 × 10^6cells) cells were subcutaneously inoculated to left flanks of male nude mice 6 weeks old (Biolasco, Taiwan) or female nude mice 6 weeks old by using a 1 mL syringe (needle 24G × 1 in., 0.55 × 25 mm; TERUMO). Tumor dimensions were measured twice a week with an electronic caliper (FOW54-200-777, PRO-MAX, Newton, Massachusetts, USA), and the volume of the subcutaneously growing tumor in mm^3 was calculated by the following formula: volume = (length × width[2])/2. Conjugates were formulated 10% DMA/20% Cremophor EL/70% injectable solution of 5% dextrose (D5W) for treating MIA PaCa-2 and HCC1806 xenograft tumors. […] Body weight of the mice and tumor volume were measured twice weekly.

By Vss is commonly meant a proportionality between amount in the body and measured concentration, not a real space. A low value points to little distribution into tissue.

As to `CCCCCC(=O)Nc1cccc(CN(Cc2cc(CN(Cc3ccccn3)Cc3cccc(NC(=O)CCCCC)n3)cc(OCCCCN(Cc3ccc(C(=O)NCCOCCOCCNC(=O)CCSSC(C)(C)CCC(=O)N(C)C(C)C(=O)OC4CC(=O)N(C)c5cc(cc(OC)c5Cl)CC(C)=CC=CC(OC)C5(O)CC(OC(=O)N5)C(C)C5OC45C)cc3)C(=O)C3(c4ccc(Cl)cc4)CCCCC3)c2)Cc2ccccn2)n1.O=[N+]([O-])[O-].O=[N+]([O-])[O-].O=[N+]([O-])[O-].O=[N+]([O-])[O-].[Zn+2].[Zn+2]` (centres unmarked) [Compound 43], in data set [1], the “loss of AUC” value is reported as ~20%, the “AUC(0-24 hr) Conjugate” value was 84916 ng·h/mL, the CL worked out at 1.0 mL/min/kg and the Vss was found to be 0.2 L/kg. Further, the “AUC(0-24 hr) Drug” value in data set [1] (released payload 16) worked out at 48 ng·h/mL.

As to `COc1cc2cc(c1Cl)N(C)C(=O)C[C@H](OC(=O)[C@H](C)N(C)C(=O)CCSSCCC(=O)NCc1ccc(CNC(=O)COCCOCCOCC(=O)N(CCCCOc3cc(CN(Cc4ccccn4)Cc4ccccn4)cc(CN(Cc4ccccn4)Cc4ccccn4)c3)Cc3ccc(-c4ccccc4)cc3)cc1)[C@]1(C)O[C@H]1[C@H](C)[C@@H]1C[C@@](O)(NC(=O)O1)[C@H](OC)/C=C\C=C(/C)C2.O=[N+]([O-])[O-].O=[N+]([O-])[O-].O=[N+]([O-])[O-].O=[N+]([O-])[O-].[Zn+2].[Zn+2]` [Compound 30], in data set [1], the “AUC(0-24 hr) Conjugate” value came to 39025 ng·h/mL, the CL was 2.5 mL/min/kg and the Vss is listed as 0.5 L/kg. Besides, in data set [1] (released payload 14), the “AUC(0-24 hr) Drug” value was determined as 242 ng·h/mL.

Take `CCCCCC(=O)Nc1cccc(CN(Cc2cc(CN(Cc3ccccn3)Cc3cccc(NC(=O)CCCCC)n3)cc(OCCCCNC(=O)COCCOCCOCC(=O)NCc3ccc(CNC(=O)CCSSCCC(=O)N(C)[C@@H](C)C(=O)O[C@H]4CC(=O)N(C)c5cc(cc(OC)c5Cl)C/C(C)=C/C=C\[C@@H](OC)[C@@]5(O)C[C@H](OC(=O)N5)[C@@H](C)[C@@H]5O[C@@]45C)cc3)c2)Cc2ccccn2)n1.O=[N+]([O-])[O-].O=[N+]([O-])[O-].O=[N+]([O-])[O-].O=[N+]([O-])[O-].[Zn+2].[Zn+2]` [Compound 36]: in data set [2], the antitumor efficacy result is listed as “potent antitumor efficacies” and the “body weight change during treatment” value was “without apparent body weight loss”. Further, in data set [1], the “AUC(0-24 hr) Conjugate” value stood at 14244 ng·h/mL, the CL amounted to 6.0 mL/min/kg and the Vss came to 0.4 L/kg. Besides, in data set [1] (released payload 14), the “AUC(0-24 hr) Drug” value was 640 ng·h/mL.

With `CCCCCC(=O)Nc1cccc(CN(Cc2cc(CN(Cc3ccccn3)Cc3cccc(NC(=O)CCCCC)n3)cc(OCCCCN(Cc3ccc(-c4ccccc4)cc3)C(=O)COCCOCCOCC(=O)NCc3ccc(CNC(=O)CCC(C)(C)SSCCC(=O)N(C)[C@@H](C)C(=O)O[C@H]4CC(=O)N(C)c5cc(cc(OC)c5Cl)C/C(C)=C/C=C\[C@@H](OC)[C@@]5(O)C[C@H](OC(=O)N5)[C@@H](C)[C@@H]5O[C@@]45C)cc3)c2)Cc2ccccn2)n1.O=[N+]([O-])[O-].O=[N+]([O-])[O-].O=[N+]([O-])[O-].O=[N+]([O-])[O-].[Zn+2].[Zn+2]` [Compound 40b], in data set [1], the “loss of AUC” value is ~20%, the “AUC(0-24 hr) Conjugate” value was determined as 88387 ng·h/mL, the CL is 1.0 mL/min/kg and the Vss was determined as 0.2 L/kg. Also, the “AUC(0-24 hr) Drug” value in data set [1] (released payload 14) amounted to 91 ng·h/mL.
